This assay addresses dendritic cell-specific intercellular adhesion molecule-3-grabbing nonintegrin (DC-SIGN) (UniProt Q9NNX6). In words: cell-based or functional assay.
Sequence of UniProt Q9NNX6 (Q9NNX6 whole entry): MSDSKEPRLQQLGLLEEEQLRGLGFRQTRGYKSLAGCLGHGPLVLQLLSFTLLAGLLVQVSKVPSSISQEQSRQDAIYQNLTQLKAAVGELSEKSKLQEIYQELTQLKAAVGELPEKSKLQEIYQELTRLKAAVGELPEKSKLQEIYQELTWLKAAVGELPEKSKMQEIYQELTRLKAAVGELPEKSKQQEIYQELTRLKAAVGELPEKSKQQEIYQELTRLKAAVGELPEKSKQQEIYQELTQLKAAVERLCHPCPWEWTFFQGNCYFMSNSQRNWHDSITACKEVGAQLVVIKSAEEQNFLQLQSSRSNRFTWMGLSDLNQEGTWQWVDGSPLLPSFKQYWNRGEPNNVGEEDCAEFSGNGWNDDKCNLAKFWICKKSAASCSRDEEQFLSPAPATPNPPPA

As to “Man-OvaI/II (combination of particles PP7-Man900-OvaI100 and PP7-Man900-OvaII100) (from UniProt P03630 2-127)”, the uptake of fluorophore-labeled VLPs by moDCs over 30 min (flow cytometry) (fold against PE-OvaI/II) turned out to be 5.

The values are drawn from patent US20260053903A1.
